From US20230272116A1 (Hoffmann-La Roche, published 2023)

T1: Carcinoembryonic antigen (CEA), Carcinoembryonic antigen-related cell adhesion molecule 5 (CEACAM5), on cells (human, UniProt P06731 35-685)
T1 construct: whole, on cells; also called CEA on MKN-45 cells; CEA in BxPC3 tumours
T1 sequence (looked up): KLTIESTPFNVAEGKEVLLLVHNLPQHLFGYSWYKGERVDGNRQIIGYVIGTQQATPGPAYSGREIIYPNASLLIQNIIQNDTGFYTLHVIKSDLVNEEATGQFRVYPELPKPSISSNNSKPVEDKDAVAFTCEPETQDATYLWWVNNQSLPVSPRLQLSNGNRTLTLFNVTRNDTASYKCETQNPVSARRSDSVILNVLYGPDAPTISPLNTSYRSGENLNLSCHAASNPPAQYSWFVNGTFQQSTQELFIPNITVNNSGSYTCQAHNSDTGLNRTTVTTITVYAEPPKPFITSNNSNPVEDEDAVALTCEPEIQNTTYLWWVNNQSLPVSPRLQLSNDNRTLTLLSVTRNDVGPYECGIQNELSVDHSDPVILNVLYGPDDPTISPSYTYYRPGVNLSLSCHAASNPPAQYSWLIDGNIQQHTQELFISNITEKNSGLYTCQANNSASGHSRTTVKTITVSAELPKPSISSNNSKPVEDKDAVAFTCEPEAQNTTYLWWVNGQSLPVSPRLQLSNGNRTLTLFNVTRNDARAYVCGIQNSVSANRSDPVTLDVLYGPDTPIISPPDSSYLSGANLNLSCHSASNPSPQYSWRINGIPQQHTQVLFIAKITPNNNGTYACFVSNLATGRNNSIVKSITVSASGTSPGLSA

B1: P1AF0712 (CEA CH1A1A split DOTA-VL) (antibody, human IgG1, kappa, L234A L235A)
heavy 1: not shown
heavy 2: QVQLVQSGAEVKKPGASVKVSCKASGYTFTEFGMNWVRQAPGQGLEWMGWINTKTGEATYVEEFKGRVTFTTDTSTSTAYMELRSLRSDDTAVYYCARWDFAYYVEAMDYWGQGTTVTVSSASTKGPSVFPLAPSSKSTSGGTAALGCLVKDYFPEPVTVSWNSGALTSGVHTFPAVLQSSGLYSLSSVVTVPSSSLGTQTYICNVNHKPSNTKVDKKVEPKSCDKTHTCPPCPAPEAAGGPSVFLFPPKPKDTLMISRTPEVTCVVVDVSHEDPEVKFNWYVDGVEVHNAKTKPREEQYNSTYRVVSVLTVLHQDWLNGKEYKCKVSNKALGAPIEKTISKAKGQPREPQVCTLPPSRDELTKNQVSLSCAVKGFYPSDIAVEWESNGQPENNYKTTPPVLDSDGSFFLVSKLTVDKSRWQQGNVFSCSVMHEALHNHYTQKSLSLSPGGGGGSGGGGSGGGGSGGGGSQAVVIQESALTTPPGETVTLTCGSSTGAVTASNYANWVQEKPDHLFTGLIGGHNNRPPGVPARFSGSLIGDKAALTIAGTQTEDEAIYFCALWYSDHWVIGGGTKLTVL
light: DIQMTQSPSSLSASVGDRVTITCKASAAVGTYVAWYQQKPGKAPKLLIYSASYRKRGVPSRFSGSGSGTDFTLTISSLQPEDFATYYCHQYYTYPLFTFGQGTKLEIKRTVAAPSVFIFPPSDEQLKSGTASVVCLLNNFYPREAKVQWKVDNALQSGNSQESVTEQDSKDSTYSLSSTLTLSKADYEKHKVYACEVTHQGLSSPVTKSFNRGEC
notes: CH1A1A anti-CEA IgG1 (knob-into-hole); also called CEA specific SPLIT antibody; P6_A
B2: P1AF0713 (CEA CH1A1A split DOTA-VH-AST) (antibody, human IgG1, kappa, L234A L235A)
heavy 1: QVQLVQSGAEVKKPGASVKVSCKASGYTFTEFGMNWVRQAPGQGLEWMGWINTKTGEATYVEEFKGRVTFTTDTSTSTAYMELRSLRSDDTAVYYCARWDFAYYVEAMDYWGQGTTVTVSSASTKGPSVFPLAPSSKSTSGGTAALGCLVKDYFPEPVTVSWNSGALTSGVHTFPAVLQSSGLYSLSSVVTVPSSSLGTQTYICNVNHKPSNTKVDKKVEPKSCDKTHTCPPCPAPEAAGGPSVFLFPPKPKDTLMISRTPEVTCVVVDVSHEDPEVKFNWYVDGVEVHNAKTKPREEQYNSTYRVVSVLTVLHQDWLNGKEYKCKVSNKALGAPIEKTISKAKGQPREPQVCTLPPSRDELTKNQVSLSCAVKGFYPSDIAVEWESNGQPENNYKTTPPVLDSDGSFFLVSKLTVDKSRWQQGNVFSCSVMHEALHNHYTQKSLSLSPG
heavy 2: not shown
light: B1 light
notes: CH1A1A anti-CEA IgG1 (knob-into-hole); also called CEA specific SPLIT antibody; P6_B
B3: CEA-split-DOTAM-VH P1AD8749 (antibody, human IgG1, kappa, L234A L235A)
heavy 1: B2 heavy 1
heavy 2: not shown
light: B1 light
notes: CH1A1A anti-CEA IgG1 (knob-into-hole, PG LALA); Both heavy chains carry VH-CH1, so the light chain pairs with each; also called PRIT Split Antibody with DOTAM-VH; hemibody

Legend:
[1] = molecular target: B2; test: cell-based or functional assay
[2] = molecular target: T1, Carcinoembryonic antigen (CEA), …; test: flow cytometry on MKN-45 cells, detection with anti-huIgG(H+L)-Alexa488
Protocol: MKN-45 cells were detached from the culture bottle using Trypsin and were counted using a Casy cell counter. After pelleting at 4° C., 300 g the cells were resuspended in FACS Buffer (2.5% FCS in PBS), adjusted to 2.0E+06 cells/mL dispensed to 96-well PP V-bottom-Platte (25 μL/well=5.0E+04 Zellen/well).
Both antibodies were added to the cells either separated followed by buffer or combined and incubated at 4° C. for 1 h. The cells were then washed twice in FACS buffer. After washing, the cells were resuspended in 50 μL FACS-buffer containing secondary antibody (<huIgG(H+L)>-Alexa488, c=10 μg/mL) and incubated 1 h at 4° C. The cells were then washed twice in FACS buffer and resuspended in 70 μl/well FACS buffer for measurement using a FACS Canto (BD, Pharmingen).

[3] = molecular target: T1, Carcinoembryonic antigen (CEA), …; test: FACS on MKN-45 cells; hemibody mixed 1:1 with human ISO control; detection with anti-human IgG(H+L) secondary antibody
Protocol: To assess the functionality of the split antibodies or hemibodies, MKN-45 cells were detached from the culture vessel using accutase at 37° C. for 10 minutes. Subequently, the cells were washed twice in PBS, and seeded into 96 well v-bottom plates to a final density of 4×10⁶ cells/well.
Subsequently, the cells were incubated for 1 h on ice and washed twice in PBS. The cell pellet was resuspended and 40 μl/well of detection reagent was added, either <human IgG(H+L)>FITC, (10 μg/ml) or Pb_Dotam_FITC 1:100=>(10 μg/ml) in PBS/5% FCS. After 60 min incubation on ice, the cells were washed twice in PBS and resuspended in 200 μl PBS/5% FCS for measurement of FITC fluorescence using a FACS canto.

EC50 [2] | EC50 (read off the curve) [3] | Binder | EC50 µg/ml absolute, DOTA-FITC (Pb-DOTA-FITC detection on MKN-45 cells, FACS) [1]
2.7 µg/mL |  | B1 | 2.4 µg/mL
2.3 µg/mL |  | B2 | 
 | ~1 µg/mL | B3 | 
